Source: US10428140B2, “Anti-EphA4 antibody” (EISAI R&D MANAGEMENT CO., LTD., priority 2015, dated 2019)
Substitutions are numbered along the chain they refer to. Blank lines part the entries; values can stand above or below the molecule they belong to.

Tests used:
Assay in all cases: Selectivity ELISA of humanized antibodies for human Eph receptor
Assay type in all cases: binding
Settings in all cases: coated protein 1 nM
human EphB1 = molecular target: T1, human EphB1 (Homo sapiens, UniProt P54762)
T1 construct: a protein of the extracellular region of each human Eph receptor fused with the SEAP protein and the His tag; made in house; host or cells: Expi293F cells (culture supernatant)
T1 sequence (P54762 18-540 limits assumed): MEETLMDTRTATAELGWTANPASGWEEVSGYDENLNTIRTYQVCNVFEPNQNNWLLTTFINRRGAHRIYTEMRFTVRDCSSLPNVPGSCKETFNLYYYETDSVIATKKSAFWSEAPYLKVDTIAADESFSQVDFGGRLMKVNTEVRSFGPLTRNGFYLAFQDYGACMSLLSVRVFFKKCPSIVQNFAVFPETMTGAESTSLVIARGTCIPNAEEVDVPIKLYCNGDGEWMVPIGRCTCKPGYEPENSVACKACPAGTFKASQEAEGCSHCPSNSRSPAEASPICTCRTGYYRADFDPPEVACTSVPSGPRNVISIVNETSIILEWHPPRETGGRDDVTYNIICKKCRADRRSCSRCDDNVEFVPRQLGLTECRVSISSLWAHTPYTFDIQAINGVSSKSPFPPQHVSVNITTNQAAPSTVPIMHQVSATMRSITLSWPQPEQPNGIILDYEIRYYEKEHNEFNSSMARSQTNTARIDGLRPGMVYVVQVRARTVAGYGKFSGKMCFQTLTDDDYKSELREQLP
Procedure, shortened: (§1)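 Extracellular domains of human Eph receptors fused to SEAP-His were expressed in Expi293F cells for 5 days and captured from supernatant (1 nM final) on anti-His-coated plates. Humanized anti-EphA4 antibodies were incubated 1 h at room temperature, then HRP anti-IgG secondary, TMB substrate, and absorbance at 450 nm.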

human EphA5 = molecular target: T2, human EphA5 (Homo sapiens, UniProt P54756)
T2 construct: a protein of the extracellular region of each human Eph receptor fused with the SEAP protein and the His tag; made in house; host or cells: Expi293F cells (culture supernatant)
Procedure, shortened: as §1

human EphB3 = molecular target: T3, human EphB3 (Homo sapiens, UniProt P54753)
T3 construct: a protein of the extracellular region of each human Eph receptor fused with the SEAP protein and the His tag; made in house; host or cells: Expi293F cells
T3 sequence (P54753 34-559 limits assumed): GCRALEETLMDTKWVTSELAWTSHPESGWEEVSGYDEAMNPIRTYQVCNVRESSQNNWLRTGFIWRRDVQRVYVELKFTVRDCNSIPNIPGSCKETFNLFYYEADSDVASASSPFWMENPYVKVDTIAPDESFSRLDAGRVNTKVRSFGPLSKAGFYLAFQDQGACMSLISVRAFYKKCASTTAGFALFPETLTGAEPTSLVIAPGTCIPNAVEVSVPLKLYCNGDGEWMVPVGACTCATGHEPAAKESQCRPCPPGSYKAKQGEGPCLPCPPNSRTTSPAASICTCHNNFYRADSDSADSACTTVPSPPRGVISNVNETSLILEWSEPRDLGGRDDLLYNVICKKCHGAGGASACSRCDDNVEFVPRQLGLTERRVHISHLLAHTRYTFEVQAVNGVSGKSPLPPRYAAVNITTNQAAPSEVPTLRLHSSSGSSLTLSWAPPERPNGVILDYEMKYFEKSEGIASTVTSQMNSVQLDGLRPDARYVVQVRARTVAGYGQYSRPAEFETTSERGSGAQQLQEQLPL
Procedure, shortened: as §1

human EphB2 = molecular target: T4, human EphB2 (Homo sapiens, UniProt P29323)
T4 construct: a protein of the extracellular region of each human Eph receptor fused with the SEAP protein and the His tag; made in house; host or cells: Expi293F cells
T4 sequence (P29323 19-543 limits assumed): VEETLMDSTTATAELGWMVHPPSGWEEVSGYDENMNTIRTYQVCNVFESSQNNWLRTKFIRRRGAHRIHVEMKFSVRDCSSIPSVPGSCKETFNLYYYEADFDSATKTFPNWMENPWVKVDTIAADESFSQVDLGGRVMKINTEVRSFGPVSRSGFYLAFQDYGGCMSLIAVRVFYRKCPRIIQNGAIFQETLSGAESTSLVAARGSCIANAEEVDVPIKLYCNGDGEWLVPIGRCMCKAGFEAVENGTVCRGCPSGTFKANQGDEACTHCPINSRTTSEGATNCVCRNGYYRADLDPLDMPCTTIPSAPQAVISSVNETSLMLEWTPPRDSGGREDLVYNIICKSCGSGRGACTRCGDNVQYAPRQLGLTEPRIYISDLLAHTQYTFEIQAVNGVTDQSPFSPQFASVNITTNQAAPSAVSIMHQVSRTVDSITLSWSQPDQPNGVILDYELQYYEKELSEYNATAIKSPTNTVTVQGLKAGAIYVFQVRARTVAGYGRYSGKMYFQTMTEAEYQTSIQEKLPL
Procedure, shortened: as §1

T2 sequence (P54756 25-573 limits assumed): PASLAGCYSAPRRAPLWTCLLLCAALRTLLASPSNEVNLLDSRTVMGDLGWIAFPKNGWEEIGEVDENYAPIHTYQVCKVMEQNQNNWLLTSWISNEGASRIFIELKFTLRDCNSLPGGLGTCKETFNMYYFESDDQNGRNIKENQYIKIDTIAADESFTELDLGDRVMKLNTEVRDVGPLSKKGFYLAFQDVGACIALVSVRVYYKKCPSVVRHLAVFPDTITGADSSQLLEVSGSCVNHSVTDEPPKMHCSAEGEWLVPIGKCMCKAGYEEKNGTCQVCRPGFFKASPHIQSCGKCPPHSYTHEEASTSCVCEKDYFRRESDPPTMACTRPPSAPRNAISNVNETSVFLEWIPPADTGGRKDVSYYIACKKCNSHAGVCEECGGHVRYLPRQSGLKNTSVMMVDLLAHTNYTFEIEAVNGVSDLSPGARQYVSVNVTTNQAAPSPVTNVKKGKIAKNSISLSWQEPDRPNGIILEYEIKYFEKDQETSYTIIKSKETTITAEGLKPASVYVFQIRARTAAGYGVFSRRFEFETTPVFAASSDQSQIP

hEphB1-SEAP-: absorbance at 450 nm, percentage with respect to hEphA4-SEAP-His as 100% (human EphB1): 4.9%
hEphA5-SEAP-: absorbance at 450 nm, percentage with respect to hEphA4-SEAP-His as 100% (human EphA5): 5.1%
hEphB3-SEAP-: absorbance at 450 nm, percentage with respect to hEphA4-SEAP-His as 100% (human EphB3): 5.1%
hEphB2-SEAP-: absorbance at 450 nm, percentage with respect to hEphA4-SEAP-His as 100% (human EphB2): 5.9%
B1: 90 (antibody, V domains shown)
VL: DIQMTQSPSSLSASVGDRVTITCRASENIYRNLAWYQQKPGKAPQLLLYAATNLADGVPSRFSGSGSGTDYTLTISSLQPEDFATYYCQHFWGTPWTFGQGTKVEIK
VH: QVQLVQSGSELKKPGASVKVSCKASGYTFTDYSMHWVRQAPGQGLEWMGWINTETGEPTYADDFKGRFVFSLDTSVSTAYLQISSLKAEDTAVYYCARIPLYYYGSRYWYFDVWGQGTTVTVSS
modifications: constant regions without entry; synthetic humanized antibody light chain variable region sequence; synthetic humanized antibody heavy chain variable region sequence

hEphB1-SEAP-: absorbance at 450 nm, percentage with respect to hEphA4-SEAP-His as 100% (human EphB1): 6.7%
hEphA5-SEAP-: absorbance at 450 nm, percentage with respect to hEphA4-SEAP-His as 100% (human EphA5): 6.5%
hEphB3-SEAP-: absorbance at 450 nm, percentage with respect to hEphA4-SEAP-His as 100% (human EphB3): 6.7%
hEphB2-SEAP-: absorbance at 450 nm, percentage with respect to hEphA4-SEAP-His as 100% (human EphB2): 7.0%
B2: 94 (antibody, V domains shown)
VL: EIVMTQSPATLSVSPGERATLSCRASENIYRNLAWYQQKPGQSPRLLIYAATNLADGIPARFSGSGSGTEYTLTISSLQSEDFAVYYCQHFWGTPWTFGQGTKVEIK
VH: B1 VH with E46K, D62Q, D63G, K65T
modifications: constant regions without entry; synthetic humanized antibody light chain variable region sequence; synthetic humanized antibody heavy chain variable region sequence

hEphB1-SEAP-: absorbance at 450 nm, percentage with respect to hEphA4-SEAP-His as 100% (human EphB1): 6.6%
hEphA5-SEAP-: absorbance at 450 nm, percentage with respect to hEphA4-SEAP-His as 100% (human EphA5): 6.4%
hEphB3-SEAP-: absorbance at 450 nm, percentage with respect to hEphA4-SEAP-His as 100% (human EphB3): 7.0%
hEphB2-SEAP-: absorbance at 450 nm, percentage with respect to hEphA4-SEAP-His as 100% (human EphB2): 7.0%
B3: 91 (antibody, V domains shown)
VL: B1 VL
VH: B1 VH with E46K
modifications: constant regions without entry; synthetic humanized antibody light chain variable region sequence; synthetic humanized antibody heavy chain variable region sequence

hEphB1-SEAP-: absorbance at 450 nm, percentage with respect to hEphA4-SEAP-His as 100% (human EphB1): 5.7%
hEphA5-SEAP-: absorbance at 450 nm, percentage with respect to hEphA4-SEAP-His as 100% (human EphA5): 6.0%
hEphB3-SEAP-: absorbance at 450 nm, percentage with respect to hEphA4-SEAP-His as 100% (human EphB3): 5.8%
hEphB2-SEAP-: absorbance at 450 nm, percentage with respect to hEphA4-SEAP-His as 100% (human EphB2): 5.6%
B4: 73 (antibody, V domains shown)
VH: B1 VH with V2I, E46K
VL: B2 VL
modifications: synthetic humanized antibody heavy chain variable region sequence; synthetic humanized antibody light chain variable region sequence

hEphB1-SEAP-: absorbance at 450 nm, percentage with respect to hEphA4-SEAP-His as 100% (human EphB1): 4.6%
hEphA5-SEAP-: absorbance at 450 nm, percentage with respect to hEphA4-SEAP-His as 100% (human EphA5): 4.6%
hEphB3-SEAP-: absorbance at 450 nm, percentage with respect to hEphA4-SEAP-His as 100% (human EphB3): 4.6%
hEphB2-SEAP-: absorbance at 450 nm, percentage with respect to hEphA4-SEAP-His as 100% (human EphB2): 4.7%
B5: 95 (antibody, V domains shown)
VL: B2 VL
VH: B1 VH
modifications: constant regions without entry; synthetic humanized antibody light chain variable region sequence; synthetic humanized antibody heavy chain variable region sequence

hEphB1-SEAP-: absorbance at 450 nm, percentage with respect to hEphA4-SEAP-His as 100% (human EphB1): 5.4%
hEphA5-SEAP-: absorbance at 450 nm, percentage with respect to hEphA4-SEAP-His as 100% (human EphA5): 5.6%
hEphB3-SEAP-: absorbance at 450 nm, percentage with respect to hEphA4-SEAP-His as 100% (human EphB3): 5.5%
hEphB2-SEAP-: absorbance at 450 nm, percentage with respect to hEphA4-SEAP-His as 100% (human EphB2): 5.5%
B6: 71 (antibody, V domains shown)
VH: B1 VH with V2I, E46K, D62Q, D63G, K65T
VL: B2 VL
modifications: synthetic humanized antibody heavy chain variable region sequence; synthetic humanized antibody light chain variable region sequence

hEphB1-SEAP-: absorbance at 450 nm, percentage with respect to hEphA4-SEAP-His as 100% (human EphB1): 6.9%
hEphA5-SEAP-: absorbance at 450 nm, percentage with respect to hEphA4-SEAP-His as 100% (human EphA5): 6.8%
hEphB3-SEAP-: absorbance at 450 nm, percentage with respect to hEphA4-SEAP-His as 100% (human EphB3): 6.9%
hEphB2-SEAP-: absorbance at 450 nm, percentage with respect to hEphA4-SEAP-His as 100% (human EphB2): 6.6%
B7: 92 (antibody, V domains shown)
VL: B1 VL
VH: B1 VH with V2I, E46K
modifications: constant regions without entry; synthetic humanized antibody light chain variable region sequence; synthetic humanized antibody heavy chain variable region sequence

hEphB1-SEAP-: absorbance at 450 nm, percentage with respect to hEphA4-SEAP-His as 100% (human EphB1): 5.6%
hEphA5-SEAP-: absorbance at 450 nm, percentage with respect to hEphA4-SEAP-His as 100% (human EphA5): 6.0%
hEphB3-SEAP-: absorbance at 450 nm, percentage with respect to hEphA4-SEAP-His as 100% (human EphB3): 5.6%
hEphB2-SEAP-: absorbance at 450 nm, percentage with respect to hEphA4-SEAP-His as 100% (human EphB2): 5.5%
B8: 96 (antibody, V domains shown)
VL: B2 VL
VH: B1 VH with E46K
modifications: constant regions without entry; synthetic humanized antibody light chain variable region sequence; synthetic humanized antibody heavy chain variable region sequence

hEphB1-SEAP-: absorbance at 450 nm, percentage with respect to hEphA4-SEAP-His as 100% (human EphB1): 5.0%
hEphA5-SEAP-: absorbance at 450 nm, percentage with respect to hEphA4-SEAP-His as 100% (human EphA5): 4.9%
hEphB3-SEAP-: absorbance at 450 nm, percentage with respect to hEphA4-SEAP-His as 100% (human EphB3): 5.1%
hEphB2-SEAP-: absorbance at 450 nm, percentage with respect to hEphA4-SEAP-His as 100% (human EphB2): 5.0%
B9: 93 (antibody, V domains shown)
VL: B2 VL
VH: B1 VH with D62Q, D63G, K65T
modifications: constant regions without entry; synthetic humanized antibody light chain variable region sequence; synthetic humanized antibody heavy chain variable region sequence
